Experiments:
[1] = biological target: T1, 蛋白激酶p38δ (p38δ-2×Strep) (Homo sapiens (Human), UniProt O15264 1-365); assay: indirect ELISA, p38δ coated, nanobody at 0-6.4 μM, anti-FLAG detection, 4-parameter fit
T1 construct: Expressed from pET28a-p38δ-2×Strep in E. coli BL21(DE3) and purified on MagStrep beads; The tag is placed C-terminal on the strength of the vector name only; Any further vector residues are not described; not shown: 2×Strep tag
T1 sequence: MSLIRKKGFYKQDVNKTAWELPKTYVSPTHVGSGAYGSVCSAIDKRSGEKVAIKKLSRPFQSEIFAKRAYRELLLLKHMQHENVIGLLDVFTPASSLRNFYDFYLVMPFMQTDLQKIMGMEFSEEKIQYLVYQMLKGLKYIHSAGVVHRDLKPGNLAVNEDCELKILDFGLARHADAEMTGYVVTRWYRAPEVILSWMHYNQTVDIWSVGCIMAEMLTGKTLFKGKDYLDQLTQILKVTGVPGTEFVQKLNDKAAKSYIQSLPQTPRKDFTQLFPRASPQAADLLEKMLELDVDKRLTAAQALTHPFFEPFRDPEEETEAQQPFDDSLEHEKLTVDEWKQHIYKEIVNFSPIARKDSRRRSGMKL

[2] = biological target: T2, p38γ (p38γ-2×Strep) (Homo sapiens (Human), UniProt P53778 1-367); assay: ELISA, p38 proteins coated on the plate, nanobody periplasmic extract, anti-FLAG detection, OD450
T2 construct: Expressed from pET28a-p38γ-2×Strep in E. coli; not shown: 2×Strep tag
T2 sequence: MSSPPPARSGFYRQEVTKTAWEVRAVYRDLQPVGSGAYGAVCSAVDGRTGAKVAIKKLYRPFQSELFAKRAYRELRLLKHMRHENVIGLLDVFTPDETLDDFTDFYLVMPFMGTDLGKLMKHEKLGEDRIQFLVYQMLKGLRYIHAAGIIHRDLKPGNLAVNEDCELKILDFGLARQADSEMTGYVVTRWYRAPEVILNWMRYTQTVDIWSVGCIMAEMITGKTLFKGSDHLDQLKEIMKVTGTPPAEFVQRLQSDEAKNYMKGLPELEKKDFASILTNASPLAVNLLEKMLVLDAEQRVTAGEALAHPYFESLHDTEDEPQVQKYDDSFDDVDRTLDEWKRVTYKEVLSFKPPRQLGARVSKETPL

Kd [1]: 1320 nM
binding result [2]: no binding
B1: 纳米抗体Nb13-1 (VHH)
VHH: QVQLVESGGALVQPGGSLRLSCAASGWWGQRGWLRWYRQAPGKEREWVCGISLRRNRYSYEDSVKGRFTCSRDDARNTVYLQLNSLKPEDTAVYYCAPLSLLHDEDNHSSNYWGQGTQVTVSS
notes: Expressed from pET22b-NB-FLAG in E. coli BL21(DE3); It was used as periplasmic extract in several assays; also called 特异性结合蛋白激酶p38δ的纳米抗体; not shown: C-terminal FLAG tag fused in pET22b
